This is an account of results in patent US20250121075A1, “ALPHA-FETOPROTEIN BIOCONJUGATES FOR DISEASE TREATMENT” (priority 2021, published 2025).

Like-named read-outs stand apart in the source and are kept apart here.

Holding throughout (type): cell-based, human
One assay relates to SKOV3 cells. The assay can be described thus: Cytotoxicity of AFP-ABZ982 and AFP-ABZ1827 bioconjugates, 4 day incubation. Conditions: read-out: Average IC50 SKOV3 cells (n = 1), 4 days. Here is the method:
(§1) Bioconjugates containing ABZ981 with two different release functionalities (AFP-ABZ982 and AFP-ABZ1827) were subsequently prepared at DPRs of 2.5 to 6.3. Cells were incubated for 4 days in the presence of the compounds over an 8-point concentration range, with each concentration tested in triplicate. Two experiments performed using freshly thawed U937 cells gave similar results to U937 cells maintained in culture.

For a further assay, the system named is U937 cells. The description is as above. As to conditions: 4 days. Here is the method: as §1
For a further assay, the system named is COLO-205 cells. Nature of the assay: CellTiter-Glo cell viability, 72 hours. Conditions: Homo sapiens. Here is the method: Turning to Table 5, two bioconjugates of each of AFP-ABZ982 and AFP-ABZ1827 (4 in total) were prepared at DPRs of approximately 4 (“low DPR”) and 6 (“high DPR”) for efficacy testing in vivo in the COLO-205 human tumor xenograft model. Potency in the COLO-205 cell line prior to implantation was assessed. Briefly, 96 well plates were seeded with COLO-205 cells either at 5,000 or 2,500 cells per well in a total volume to 50 μL per well. Plates were incubated overnight then treated with the bioconjugate at 37° C. for 72 hours and then a CellTiter-Glo assay was performed to measure cell viability. Samples were run in triplicate.

The mark [1] stands for this setting: freshly thawed cells, read-out: Average IC50 U937 freshly thawed cells (n = 2).
Where [2] appears, read: read-out: Average IC50 U937 cultured cells (n = 1), cells maintained in culture.

What is called IC50 is the point on the concentration scale where inhibition reaches its midpoint. `COc1cc2cc(c1-c1ccc(NC(=O)CCC(C)S)cc1)N(C)C(=O)C[C@H](OC(=O)C(C)C)[C@]1(C)O[C@H]1[C@H](C)[C@@H]1C[C@@](O)(NC(=O)O1)[C@H](OC)/C=C/C=C(\C)C2` (stereo partly drawn) [ABZ-981]: the 50% inhibitory concentration (IC50) was determined as 5.53 nM in the assay with SKOV3 cells (Homo sapiens, SK-OV-3, 96 h); 3.06 nM with U937 cells (Homo sapiens, U-937, 96 h, read-out: Average IC50 U937 cultured cells (n = 1), cells maintained in culture); 2.84 nM in the assay on U937 cells (Homo sapiens, U-937, 96 h, freshly thawed cells, read-out: Average IC50 U937 freshly thawed cells (n = 2)); 6.1 nM in the assay with COLO-205 cells.

B1: AFP-ABZ982 DPR 5.51: AFP-ABZ982 bioconjugate, average DPR 5.51 (conjugate, UniProt P02771 19-609, looked up)
Alpha-fetoprotein: RTLHRNEYGIASILDSYQCTAEISLADLATIFFAQFVQEATYKEVSKMVKDALTAIEKPTGDEQSSGCLENQLPAFLEELCHEKEILEKYGHSDCCSQSEEGRHNCFLAHKKPTPASIPLFQVPEPVTSCEAYEEDRETFMNKFIYEIARRHPFLYAPTILLWAARYDKIIPSCCKAENAVECFQTKAATVTKELRESSLLNQHACAVMKNFGTRTFQAITVTKLSQKFTKVNFTEIQKLVLDVAHVHEHCCRGDVLDCLQDGEKIMSYICSQQDTLSNKITECCKLTTLERGQCIIHAENDEKPEGLSPNLNRFLGDRDFNQFSSGEKNIFLASFVHEYSRRHPQLAVSVILRVAKGYQELLEKCFQTENPLECQDKGEEELQKYIQESQALAKRSCGLFQKLGEYYLQNAFLVAYTKKAPQLTSSELMAITRKMAATAATCCQLSEDKLLACGEGAADIIIGHLCIRHEMTPVNPGVGQCCTSSYANRRPCFSSLVVDETYVPPAFSDDKFIFHKDLCQAQGVALQTMKQEFLINLVKQKPQITEEQLEAVIADFSGLLEKCCQGQEQEVCFAEEGQKLISKTRAALGV
modifications: ABZ982 toxin conjugate, DPR 5.51
As for B1, the IC50 in the assay on SKOV3 cells was 17.5 nM; in the assay on U937 cells (setting [1]), 1.71 nM; in the assay on U937 cells (setting [2]) it was 2.01 nM.

B2: AFP-ABZ982 DPR 6.28: AFP-ABZ982 bioconjugate, average DPR 6.28 (conjugate, UniProt P02771 19-609, looked up)
Alpha-fetoprotein: RTLHRNEYGIASILDSYQCTAEISLADLATIFFAQFVQEATYKEVSKMVKDALTAIEKPTGDEQSSGCLENQLPAFLEELCHEKEILEKYGHSDCCSQSEEGRHNCFLAHKKPTPASIPLFQVPEPVTSCEAYEEDRETFMNKFIYEIARRHPFLYAPTILLWAARYDKIIPSCCKAENAVECFQTKAATVTKELRESSLLNQHACAVMKNFGTRTFQAITVTKLSQKFTKVNFTEIQKLVLDVAHVHEHCCRGDVLDCLQDGEKIMSYICSQQDTLSNKITECCKLTTLERGQCIIHAENDEKPEGLSPNLNRFLGDRDFNQFSSGEKNIFLASFVHEYSRRHPQLAVSVILRVAKGYQELLEKCFQTENPLECQDKGEEELQKYIQESQALAKRSCGLFQKLGEYYLQNAFLVAYTKKAPQLTSSELMAITRKMAATAATCCQLSEDKLLACGEGAADIIIGHLCIRHEMTPVNPGVGQCCTSSYANRRPCFSSLVVDETYVPPAFSDDKFIFHKDLCQAQGVALQTMKQEFLINLVKQKPQITEEQLEAVIADFSGLLEKCCQGQEQEVCFAEEGQKLISKTRAALGV
modifications: ABZ982 toxin conjugate, DPR 6.28
On to B2, for which the half-maximal inhibitory concentration (IC50) was found to be 37 nM in the assay on SKOV3 cells and 6.55 nM in the assay on U937 cells (setting [2]).

B3: AFP-ABZ982 DPR 3.84: AFP-ABZ982 bioconjugate, average DPR 3.84 (conjugate, UniProt P02771 19-609, looked up)
Alpha-fetoprotein: RTLHRNEYGIASILDSYQCTAEISLADLATIFFAQFVQEATYKEVSKMVKDALTAIEKPTGDEQSSGCLENQLPAFLEELCHEKEILEKYGHSDCCSQSEEGRHNCFLAHKKPTPASIPLFQVPEPVTSCEAYEEDRETFMNKFIYEIARRHPFLYAPTILLWAARYDKIIPSCCKAENAVECFQTKAATVTKELRESSLLNQHACAVMKNFGTRTFQAITVTKLSQKFTKVNFTEIQKLVLDVAHVHEHCCRGDVLDCLQDGEKIMSYICSQQDTLSNKITECCKLTTLERGQCIIHAENDEKPEGLSPNLNRFLGDRDFNQFSSGEKNIFLASFVHEYSRRHPQLAVSVILRVAKGYQELLEKCFQTENPLECQDKGEEELQKYIQESQALAKRSCGLFQKLGEYYLQNAFLVAYTKKAPQLTSSELMAITRKMAATAATCCQLSEDKLLACGEGAADIIIGHLCIRHEMTPVNPGVGQCCTSSYANRRPCFSSLVVDETYVPPAFSDDKFIFHKDLCQAQGVALQTMKQEFLINLVKQKPQITEEQLEAVIADFSGLLEKCCQGQEQEVCFAEEGQKLISKTRAALGV
modifications: ABZ982 toxin conjugate, DPR 3.84
B3: the IC50 in the assay with SKOV3 cells was 35.5 nM; in the assay on U937 cells (setting [1]), 5.29 nM; with U937 cells (setting [2]), 4.49 nM.

B4: AFP-ABZ1827 DPR 4.40: AFP-ABZ1827 bioconjugate, average DPR 4.40 (conjugate, UniProt P02771 19-609, looked up)
Alpha-fetoprotein: RTLHRNEYGIASILDSYQCTAEISLADLATIFFAQFVQEATYKEVSKMVKDALTAIEKPTGDEQSSGCLENQLPAFLEELCHEKEILEKYGHSDCCSQSEEGRHNCFLAHKKPTPASIPLFQVPEPVTSCEAYEEDRETFMNKFIYEIARRHPFLYAPTILLWAARYDKIIPSCCKAENAVECFQTKAATVTKELRESSLLNQHACAVMKNFGTRTFQAITVTKLSQKFTKVNFTEIQKLVLDVAHVHEHCCRGDVLDCLQDGEKIMSYICSQQDTLSNKITECCKLTTLERGQCIIHAENDEKPEGLSPNLNRFLGDRDFNQFSSGEKNIFLASFVHEYSRRHPQLAVSVILRVAKGYQELLEKCFQTENPLECQDKGEEELQKYIQESQALAKRSCGLFQKLGEYYLQNAFLVAYTKKAPQLTSSELMAITRKMAATAATCCQLSEDKLLACGEGAADIIIGHLCIRHEMTPVNPGVGQCCTSSYANRRPCFSSLVVDETYVPPAFSDDKFIFHKDLCQAQGVALQTMKQEFLINLVKQKPQITEEQLEAVIADFSGLLEKCCQGQEQEVCFAEEGQKLISKTRAALGV
modifications: ABZ1827 toxin conjugate, DPR 4.40
In the case of B4, the 50% inhibitory concentration (IC50) in the assay on SKOV3 cells came to 58.8 nM; in the assay with U937 cells (setting [1]), 5.98 nM; in the assay with U937 cells (setting [2]) it was 7.47 nM.

B5: AFP-ABZ1827 DPR 5.88: AFP-ABZ1827 bioconjugate, average DPR 5.88 (conjugate, UniProt P02771 19-609, looked up)
Alpha-fetoprotein: RTLHRNEYGIASILDSYQCTAEISLADLATIFFAQFVQEATYKEVSKMVKDALTAIEKPTGDEQSSGCLENQLPAFLEELCHEKEILEKYGHSDCCSQSEEGRHNCFLAHKKPTPASIPLFQVPEPVTSCEAYEEDRETFMNKFIYEIARRHPFLYAPTILLWAARYDKIIPSCCKAENAVECFQTKAATVTKELRESSLLNQHACAVMKNFGTRTFQAITVTKLSQKFTKVNFTEIQKLVLDVAHVHEHCCRGDVLDCLQDGEKIMSYICSQQDTLSNKITECCKLTTLERGQCIIHAENDEKPEGLSPNLNRFLGDRDFNQFSSGEKNIFLASFVHEYSRRHPQLAVSVILRVAKGYQELLEKCFQTENPLECQDKGEEELQKYIQESQALAKRSCGLFQKLGEYYLQNAFLVAYTKKAPQLTSSELMAITRKMAATAATCCQLSEDKLLACGEGAADIIIGHLCIRHEMTPVNPGVGQCCTSSYANRRPCFSSLVVDETYVPPAFSDDKFIFHKDLCQAQGVALQTMKQEFLINLVKQKPQITEEQLEAVIADFSGLLEKCCQGQEQEVCFAEEGQKLISKTRAALGV
modifications: ABZ1827 toxin conjugate, DPR 5.88
Regarding B5, the values for the IC50 in the assay with SKOV3 cells, with U937 cells (setting [1]) and with U937 cells (setting [2]) were 35.6 nM, 2.93 nM and 2.04 nM, respectively.

B6: AFP-ABZ1827 DPR 3.35: AFP-ABZ1827 bioconjugate, average DPR 3.35 (conjugate, UniProt P02771 19-609, looked up)
Alpha-fetoprotein: RTLHRNEYGIASILDSYQCTAEISLADLATIFFAQFVQEATYKEVSKMVKDALTAIEKPTGDEQSSGCLENQLPAFLEELCHEKEILEKYGHSDCCSQSEEGRHNCFLAHKKPTPASIPLFQVPEPVTSCEAYEEDRETFMNKFIYEIARRHPFLYAPTILLWAARYDKIIPSCCKAENAVECFQTKAATVTKELRESSLLNQHACAVMKNFGTRTFQAITVTKLSQKFTKVNFTEIQKLVLDVAHVHEHCCRGDVLDCLQDGEKIMSYICSQQDTLSNKITECCKLTTLERGQCIIHAENDEKPEGLSPNLNRFLGDRDFNQFSSGEKNIFLASFVHEYSRRHPQLAVSVILRVAKGYQELLEKCFQTENPLECQDKGEEELQKYIQESQALAKRSCGLFQKLGEYYLQNAFLVAYTKKAPQLTSSELMAITRKMAATAATCCQLSEDKLLACGEGAADIIIGHLCIRHEMTPVNPGVGQCCTSSYANRRPCFSSLVVDETYVPPAFSDDKFIFHKDLCQAQGVALQTMKQEFLINLVKQKPQITEEQLEAVIADFSGLLEKCCQGQEQEVCFAEEGQKLISKTRAALGV
modifications: ABZ1827 toxin conjugate, DPR 3.35
On to B6, for which the half-inhibitory concentration (IC50) stood at 66.4 nM with SKOV3 cells, 7.07 nM in the assay with U937 cells (setting [1]) and 5.52 nM in the assay on U937 cells (setting [2]).

B7: AFP-ABZ982 DPR 2.50: AFP-ABZ982 bioconjugate, average DPR 2.50 (conjugate, UniProt P02771 19-609, looked up)
Alpha-fetoprotein: RTLHRNEYGIASILDSYQCTAEISLADLATIFFAQFVQEATYKEVSKMVKDALTAIEKPTGDEQSSGCLENQLPAFLEELCHEKEILEKYGHSDCCSQSEEGRHNCFLAHKKPTPASIPLFQVPEPVTSCEAYEEDRETFMNKFIYEIARRHPFLYAPTILLWAARYDKIIPSCCKAENAVECFQTKAATVTKELRESSLLNQHACAVMKNFGTRTFQAITVTKLSQKFTKVNFTEIQKLVLDVAHVHEHCCRGDVLDCLQDGEKIMSYICSQQDTLSNKITECCKLTTLERGQCIIHAENDEKPEGLSPNLNRFLGDRDFNQFSSGEKNIFLASFVHEYSRRHPQLAVSVILRVAKGYQELLEKCFQTENPLECQDKGEEELQKYIQESQALAKRSCGLFQKLGEYYLQNAFLVAYTKKAPQLTSSELMAITRKMAATAATCCQLSEDKLLACGEGAADIIIGHLCIRHEMTPVNPGVGQCCTSSYANRRPCFSSLVVDETYVPPAFSDDKFIFHKDLCQAQGVALQTMKQEFLINLVKQKPQITEEQLEAVIADFSGLLEKCCQGQEQEVCFAEEGQKLISKTRAALGV
modifications: ABZ982 toxin conjugate, DPR 2.50
Take B7: the 50% inhibitory concentration (IC50) with SKOV3 cells is 56.1 nM; in the assay on U937 cells (setting [1]) it was 5.25 nM; with U937 cells (setting [2]), 5.22 nM.
